B1: Sp1-1 (dsDNA)
DNA 1: CGGCCCGGTGGGGGCGGGACCCGACTCGCA
DNA 2: TGCGAGTCGGGTCCCGCCCCCACCGGGCCG
B2: Sp1-3 (dsDNA)
DNA 1: TTCTCCCCACCCGCCCCCCCGCCCCCGTCG
DNA 2: CGACGGGGGCGGGGGGGCGGGTGGGGAGAA
B3: ARS (dsDNA)
DNA 1: TCTCCACCCCGCCTCCCCCCACCCTGCCTT
DNA 2: AAGGCAGGGTGGGGGGAGGCGGGGTGGAGA

Sp1 (purified recombinant), sequence (P08047 whole entry): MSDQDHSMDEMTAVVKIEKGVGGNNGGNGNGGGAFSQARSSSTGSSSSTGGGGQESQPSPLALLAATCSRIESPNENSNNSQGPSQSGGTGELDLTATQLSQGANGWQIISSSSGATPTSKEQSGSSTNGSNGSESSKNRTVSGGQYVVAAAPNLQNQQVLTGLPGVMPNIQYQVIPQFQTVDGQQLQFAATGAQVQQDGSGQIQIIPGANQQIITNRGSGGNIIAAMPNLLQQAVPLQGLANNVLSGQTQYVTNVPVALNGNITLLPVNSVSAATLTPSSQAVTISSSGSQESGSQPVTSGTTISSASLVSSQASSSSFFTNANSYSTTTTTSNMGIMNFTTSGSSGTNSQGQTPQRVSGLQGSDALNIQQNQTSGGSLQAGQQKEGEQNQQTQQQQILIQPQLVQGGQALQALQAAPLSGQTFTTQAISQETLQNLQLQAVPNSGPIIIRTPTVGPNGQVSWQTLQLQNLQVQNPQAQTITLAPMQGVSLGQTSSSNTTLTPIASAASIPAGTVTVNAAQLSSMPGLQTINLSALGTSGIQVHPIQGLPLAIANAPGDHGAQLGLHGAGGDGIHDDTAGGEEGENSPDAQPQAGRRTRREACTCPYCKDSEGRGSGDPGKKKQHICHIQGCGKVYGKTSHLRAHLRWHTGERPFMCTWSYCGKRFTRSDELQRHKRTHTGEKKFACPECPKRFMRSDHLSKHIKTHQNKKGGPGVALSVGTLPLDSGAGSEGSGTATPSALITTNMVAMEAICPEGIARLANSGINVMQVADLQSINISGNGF

This data set concerns the target Sp1 (purified recombinant) (Homo sapiens, UniProt P08047 1-785). The experiment in a line: EMSA; EMSA: 10 ug nuclear extract or 120 nM Sp1, 20 fmol biotin probe; binding buffer per earlier paper (not given); 6% native PAGE, 0.5x TBE pH 8.3, cooled gel. pur-alpha bands not listed: antibody had no effect, protein not identified in extract. To be noted: label: 3' biotin, blunt. (In general: Mobility shift assays separate free from complexed probe on a gel.)
For B1, the binding result is reported as “binds”. Take B2: the binding result was “binds”. For B3 the value was “binds”.

For the origin of these results see PMC4598089, “An Sp1 Modulated Regulatory Region Unique to Higher Primates Regulates Human Androgen Receptor Promoter Activity in Prostate Cancer Cells”.
